These are literature values, as cited in paper PMC7830187.

This series deals with synthetic peptide.

Take intersectin-1 SH3 (from UniProt Q15811): the equilibrium dissociation constant (Kd) is 50 µM.

What is called Kd is the concentration at which binding is half-saturated.
